Assay results as given in the supplement of paper PMC9233669.
This sample holds only a part of the variants without activity.

What was measured:
biotinyl-Met-oxazolone = assay: self-aminoacylation, catalytic enhancement (BMO) (fold over background); higher = more active; k-Seq, kA / k0A0; sequences stand for … in GGGAAUGGAUCCACAUCUACGAAUUC…UUCACUGCAGACUUGACGAAGCUG
Procedure, shortened: (§1)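 Working in 50 μL HEPES/NaCl/KCl/MgCl2/CaCl2 buffer with 5% acetonitrile at pH 6.9–7.0, mutagenized RNA pools (0.43 μM; 21-nt variable region) were reacted with 2–1250 μM of each biotinyl-aminoacyl-oxazolone for 90 minutes at room temperature. Streptavidin capture followed, with quantification by triplicate qPCR and Illumina sequencing. Catalytic enhancement is reported as median kA over the uncatalyzed rate, the low-activity peak of a bimodal Gaussian fit to the data.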

biotinyl-Trp-oxazolone = assay: self-aminoacylation, catalytic enhancement (BWO) (fold over background); higher = more active; k-Seq, kA / k0A0; sequences stand for … in GGGAAUGGAUCCACAUCUACGAAUUC…UUCACUGCAGACUUGACGAAGCUG
Procedure, shortened: as §1

biotinyl-Leu-oxazolone = assay: self-aminoacylation, catalytic enhancement (BLO) (fold over background); higher = more active; k-Seq, kA / k0A0; sequences stand for … in GGGAAUGGAUCCACAUCUACGAAUUC…UUCACUGCAGACUUGACGAAGCUG
Procedure, shortened: as §1

biotinyl-Val-oxazolone = assay: self-aminoacylation, catalytic enhancement (BVO) (fold over background); higher = more active; k-Seq, kA / k0A0; sequences stand for … in GGGAAUGGAUCCACAUCUACGAAUUC…UUCACUGCAGACUUGACGAAGCUG
Procedure, shortened: as §1

biotinyl-Ile-oxazolone = assay: self-aminoacylation, catalytic enhancement (BIO) (fold over background); higher = more active; k-Seq, kA / k0A0; sequences stand for … in GGGAAUGGAUCCACAUCUACGAAUUC…UUCACUGCAGACUUGACGAAGCUG
Procedure, shortened: as §1

biotinyl-Phe-oxazolone = assay: self-aminoacylation, catalytic enhancement (BFO) (fold over background); higher = more active; k-Seq, kA / k0A0; sequences stand for … in GGGAAUGGAUCCACAUCUACGAAUUC…UUCACUGCAGACUUGACGAAGCUG
Procedure, shortened: as §1

Sequence | self-aminoacylation (biotinyl-Met-oxazolone) | self-aminoacylation (biotinyl-Trp-oxazolone) | self-aminoacylation (biotinyl-Leu-oxazolone) | self-aminoacylation (biotinyl-Val-oxazolone) | self-aminoacylation (biotinyl-Ile-oxazolone) | self-aminoacylation (biotinyl-Phe-oxazolone)
AUUCACCUAGGUCAUCUGGGG [Fam2.2 aminoacylation ribozyme variant] | 1.83 | 1.54 | 1.9 | 1.5 | 1.63 | 2.49
AAGUUUGCCAAUAGUCGCCAG [Fam3.1 aminoacylation ribozyme variant] | 2.27 | 2.22 | 2.4 | 1.54 | 1.52 | 12.8
AUUACUCUGGGCAUCGAGUGA [Fam2.1 aminoacylation ribozyme variant] | 6.39 | 7.68 | 6.57 | 3.11 | 3.71 | 41.2
AUUCACCUAGGUCUUCGAGUG [Fam2.2 aminoacylation ribozyme variant] | 2.99 | 3.26 | 3.65 | 2.13 | 2.03 | 9.5
AAGUUUGCUAGUAGUGGCAAG [Fam3.1 aminoacylation ribozyme variant] | 0.882 | 0.556 | 0.71 | 0.814 | 0.893 | 1.2
AUUCACCUAGGUCCCCGGGUG [Fam2.2 aminoacylation ribozyme variant] | 8.22 | 7.84 | 9.96 | 4.54 | 5.12 | 58.4
CCACUUCAAGCAAUCGGUCUG [Fam1A.1 aminoacylation ribozyme variant] | 1.15 | 11.8 | 1.22 | 1.28 | 1.23 | 18.6
CUACAUCAAACGAUCGGUCUG [Fam1A.1 aminoacylation ribozyme variant] | 0.657 | 0.778 | 0.78 | 0.93 | 0.728 | 0.836
AUUACCCUCGGCAUCGAGUGA [Fam2.1 aminoacylation ribozyme variant] | 10.2 | 13.9 | 11.1 | 4.45 | 4.6 | 59.4
AUUCACUUAGGUCAUCGGGUU [Fam2.2 aminoacylation ribozyme variant] | 1.78 | 1.47 | 1.69 | 1.65 | 1.59 | 6.63
AUUACACUGGUGAUCGAGUGA [Fam2.1 aminoacylation ribozyme variant] | 4.88 | 5.92 | 4.21 | 2.42 | 2.33 | 20.9
CUACUUCAAACCAUUGGUCUG [Fam1A.1 aminoacylation ribozyme variant] | 0.726 | 0.564 | 0.782 | 0.891 | 0.883 | 1.03
AAUACCCUGGUCAUCUAGUGA [Fam2.1 aminoacylation ribozyme variant] | 6.98 | 8.94 | 7.36 | 3.66 | 3.19 | 28.3
AAGUUUGCUAACAGUCGCUAG [Fam3.1 aminoacylation ribozyme variant] | 0.738 | 0.96 | 0.823 | 0.899 | 0.756 | 1.36
CCACACUUUAAGCCAUCGGUC [Fam1B.1 aminoacylation ribozyme variant] | 0.743 | 0.783 | 0.755 | 0.879 | 0.964 | 0.541
CUACUUCAAACCAUCAGUCUG [Fam1A.1 aminoacylation ribozyme variant] | 0.695 | 0.593 | 0.762 | 0.768 | 0.847 | 1.08
AUUGCCCUGGUCAUCGAAUGA [Fam2.1 aminoacylation ribozyme variant] | 1.29 | 0.773 | 1.34 | 1.29 | 1.05 | 0.641
AUUCACCUAGGUUAUCGGGUG [Fam2.2 aminoacylation ribozyme variant] | 4.34 | 4.33 | 5.2 | 3.15 | 2.89 | 28
CCCCACUUCAAGCUAUCGGUC [Fam1B.1 aminoacylation ribozyme variant] | 1.05 | 2.01 | 1.12 | 1.71 | 1.42 | 2.16
AUUACCCUGGUCAUCGUGUGC [Fam2.1 aminoacylation ribozyme variant] | 0.938 | 0.349 | 1.12 | 0.881 | 0.992 | 1.25
AUUCACCUAGGUCAUCGAGAG [Fam2.2 aminoacylation ribozyme variant] | 1.07 | 0.394 | 1.47 | 0.848 | 0.915 | 1.13
CUACUUCAAAGAAUCGGUCCG [Fam1A.1 aminoacylation ribozyme variant] | 0.638 | 0.384 | 0.866 | 0.607 | 0.718 | 0.351

Sequence | self-aminoacylation (biotinyl-Met-oxazolone) | self-aminoacylation (biotinyl-Trp-oxazolone) | self-aminoacylation (biotinyl-Leu-oxazolone) | self-aminoacylation (biotinyl-Val-oxazolone) | self-aminoacylation (biotinyl-Ile-oxazolone) | self-aminoacylation (biotinyl-Phe-oxazolone)
AAUACCCUGGUCAUCGUGUGA [Fam2.1 aminoacylation ribozyme variant] | 2.55 | 2.98 | 2.39 | 1.35 | 1.51 | 11.4
AUUACCCGGGUCAUCGAGUGC [Fam2.1 aminoacylation ribozyme variant] | 1.21 | 1.13 | 1.72 | 1.39 | 1.46 | 5.14
AUUACCCGGCUCAUCGAGUGA [Fam2.1 aminoacylation ribozyme variant] | 1.72 | 1.61 | 1.71 | 1.72 | 1.79 | 0.746
AUGCACCUAGGUCAUCGGAUG [Fam2.2 aminoacylation ribozyme variant] | 0.919 | 1.25 | 1.11 | 1.23 | 1.26 | 0.614
AUUCACCUAGGUCCUCCGGUG [Fam2.2 aminoacylation ribozyme variant] | 10.3 | 9.26 | 11.5 | 5.33 | 6.38 | 63.3
AUUCACAUAGGUCAUCGUGUG [Fam2.2 aminoacylation ribozyme variant] | 0.835 | 0.867 | 0.942 | 0.841 | 0.867 | 2.09
AAGUUUGCUAAUAGCCGCAGG [Fam3.1 aminoacylation ribozyme variant] | 0.745 | 0.916 | 0.765 | 0.853 | 0.792 | 0.671
AUUCACCUAGGUCAACGGGUG [Fam2.2 aminoacylation ribozyme variant] | 4.01 | 3.49 | 5.19 | 2.48 | 2.5 | 27.5
AUUCACCUUGGUCAUCGGGCG [Fam2.2 aminoacylation ribozyme variant] | 2.81 | 2.93 | 3.24 | 2.77 | 2.74 | 3.77
AUGCGCCUAGGUCAUCGGGUG [Fam2.2 aminoacylation ribozyme variant] | 9.32 | 9.8 | 10.7 | 6.24 | 6.21 | 60.9
AAGUUUGCUCAUAGUCGCAAG [Fam3.1 aminoacylation ribozyme variant] | 1.13 | 2.38 | 0.906 | 0.942 | 0.968 | 7.54
ACUCAACUAGGUCAUCGGGUG [Fam2.2 aminoacylation ribozyme variant] | 5.62 | 5.38 | 6.97 | 4.88 | 5.56 | 48
UUUACCUUGGUCAUCGAGUGA [Fam2.1 aminoacylation ribozyme variant] | 5.9 | 8.55 | 5.86 | 4.04 | 3.93 | 18.6
CUCCUUGAAACAAUCGGUCUG [Fam1A.1 aminoacylation ribozyme variant] | 1.31 | 1.73 | 1.18 | 1.19 | 1.1 | 1.25
GUUACCCUGGUCAUCGAAUGA [Fam2.1 aminoacylation ribozyme variant] | 1.52 | 2.55 | 1.84 | 1.81 | 1.58 | 1.45
CUUCACCUAGGUCGUCGGGUG [Fam2.2 aminoacylation ribozyme variant] | 2.39 | 2.19 | 2.43 | 2.54 | 2.2 | 9.55
AUUCACCUAGUUAAUCGGGUG [Fam2.2 aminoacylation ribozyme variant] | 3.08 | 3.53 | 3.98 | 2.04 | 2.01 | 20
AUUUACCUAGGUCAUGGGGUG [Fam2.2 aminoacylation ribozyme variant] | 4.54 | 4.29 | 6.06 | 2.85 | 3.3 | 25.7
AUUAUCCUGCUCAUCGAGUGA [Fam2.1 aminoacylation ribozyme variant] | 2.69 | 3.08 | 2.77 | 1.8 | 1.76 | 2.88
CCACACUUCAGGCAAUCAGUC [Fam1B.1 aminoacylation ribozyme variant] | 0.724 | 0.796 | 0.636 | 1.05 | 0.658 | 0.955
GUUACCCAGGUCAUCGAGUGA [Fam2.1 aminoacylation ribozyme variant] | 6.63 | 7.86 | 6.2 | 3.78 | 4.24 | 22.2
